Experimental findings from patent publication US20210403864A1, “METHODS AND COMPOSITIONS FOR TREATING ACTIVATED G-ALPHA Q MUTANT CANCERS OR MELANOCYTIC MALIGNANCIES” (Memorial Sloan Kettering Cancer Center, priority 2018, published 2021) are described below.

Test [1] has as its system human Mel202 uveal melanoma xenografts. Put plainly: In vivo anti-tumor activity, xenografts in SCID mice. To be noted: MEK162 10 mg/kg P.O. b.i.d.; YM-254890 2.5 mg/kg i.p. q.d.; over 20 days; single agents vs vehicle, combination vs vehicle and single agents. The procedure: To evaluate the effect of YM-254890 and binimetinib (MEK162) in vivo, Mel202 uveal melanoma xenografts were established in SCID mice, and the mice were treated with vehicle only, 10 mg/kg MEK162 (P.O., b.i.d.), YM-254890 (2.5 mg/kg i.p., q.d.) or a combination of MEK162 and YM-254890. Tumor volumes were measured over 20 days.

Test [2] concerns the target GNAQ^Q209L (human GNAQ α-subunit, Q209L mutant) (human) (UniProt P50148). Put plainly: cell-based or functional assay.
In test [3] the target is GNAQ^Q209L/P (endogenous, in three human UVM cell lines) (human) (UniProt P50148). In words: cell-based or functional assay.
The target in test [4] is GNAQ^R183Q (human GNAQ α-subunit, R183Q mutant) (human) (UniProt P50148). Put plainly: cell-based or functional assay.
Sequence of GNAQ^R183Q (human GNAQ α-subunit, R183Q mutant) (human) (P50148 whole entry R183Q): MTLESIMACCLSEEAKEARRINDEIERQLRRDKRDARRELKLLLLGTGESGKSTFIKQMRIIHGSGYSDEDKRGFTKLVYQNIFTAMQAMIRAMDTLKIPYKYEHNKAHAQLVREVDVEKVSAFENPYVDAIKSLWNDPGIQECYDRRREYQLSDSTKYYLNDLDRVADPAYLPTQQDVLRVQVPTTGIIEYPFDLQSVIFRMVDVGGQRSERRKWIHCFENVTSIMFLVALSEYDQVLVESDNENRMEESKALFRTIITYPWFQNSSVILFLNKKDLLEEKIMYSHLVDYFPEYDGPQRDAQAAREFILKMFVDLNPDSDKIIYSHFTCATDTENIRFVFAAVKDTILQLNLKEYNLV

Sequence of GNAQ^Q209L (human GNAQ α-subunit, Q209L mutant) (human) (P50148 whole entry Q209L): as the sequence (P50148 whole entry R183Q) above, with Q183R, Q209L counted along it

Consider `Cn1cnc2c(F)c(Nc3ccc(Br)cc3F)c(C(=O)NOCCO)cc21` [MEK162, binimetinib], for which, in test [1], the tumor volume result was “moderate reduction”.
As for YM-254890 (peptide), the IP1 accumulation, mutant-transformed melan-a cells, 24-hour treatment (fold less sensitive) in test [2] came out at 10. In test [3], the IC50 of cell proliferation, human UVM cell lines (CellTiter-glo 2.0, 5 days) stood at 100 nM. Besides, in test [4], the IP1 accumulation after 24-hour treatment with variable doses of YM, transfected HEK293T cells (fold less sensitive) is 20 and the IP1 accumulation, mutant-transformed melan-a cells, 24-hour treatment (fold less sensitive) was 10.
